Laboratory results taken from the supplement of paper PMC10567573.
± gives the standard deviation.

Assay: protein stability index of a GFP-peptide fusion (GPS, HEK-293T) (PSI 1-6); higher = more stable
Conditions: c terminus: a fixed tail appended
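Also: 24-mer peptide tiles fused after GFP, lentivirally expressed, FACS-sorted into six equal bins by GFP/DsRed ratio, decoded by Illumina sequencing, PSI is the read-weighted mean bin number.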

Sequence	protein stability index (treatment: DMSO)	protein stability index (treatment: MLN4924 1 uM, 8 h)
RSHLIGHQRTHSEEETYKCLECGK [ZNF449]	4.26 ± 0.16	4.39 ± 0.26
KPYECNECGKAFSQSSYLSQHRRI [ZNF232]	2.32 ± 0.073	2.44 ± 0.32
IKEVQKGGPADLAGLEDEDVIIEV [PDZK1]	2.22 ± 0.27	2.49 ± 0.12
INHGAEVTCKDKKGYTPLHAAASN [ANKRD44]	4.23 ± 0.16	4.2 ± 0.24
NQVSSNSWGIAGETELALVKESGE [DLC1]	5.17 ± 0.41	5.23 ± 0.2
WVTFQVLLYTSLPDFCHKFLPGYV [DHCR7]	3.4 ± 0.055	3.01 ± 0.91
SWSQYEMPEFSSDSTMRILSNLVQ [RTP4]	2.48 ± 0.24	2.59 ± 0.3
QEGAASKVLGRLRALSDTTEELTV [SLC2A12]	4.46 ± 0.31	4.65 ± 0.37
YLLDRAVDSFETQRNGLVFIYDMC [PTPN9]	2.36 ± 0.47	2.29 ± 0.29
NGINGELTSADRETAEEVSARIVQ [MAP2]	5.23 ± 0.22	5.35 ± 0.18
LFRWPDLQHAVELKPLCGCHSFAA [SMAD6]	2.27 ± 0.26	2.13 ± 0.49
LLTTSPVFPHYIEKPLGRVGVFLD [TRIM43]	2.08 ± 0.12	2.31 ± 0.25
KVIVVMRSLFIDRTIVKGYNENVY [MED27]	2.77 ± 0.39	3.29 ± 0.33
NRRDVEAWFFSKTEELNKEVASNT [KRT15]	4.05 ± 0.26	4.12 ± 0.23
LLTRKVICKSDAPTGDVLLDEALK [GOLPH3]	2.51 ± 0.25	2.91 ± 0.39
TAKDFIVGKSLTILGRTFFIYDCD [EFHC1]	2.93 ± 0.49	2.28 ± 0.34
QAPPADFIPAHVAFDKKVLKFDAY [EFHC1]	3.01 ± 0.38	2.98 ± 0.28
SGHALRILIVDWDVHHGNGTQHMF [HDAC6]	2.74 ± 0.44	3.02 ± 0.75
IEVFRRKRKMHLVFEYCDHTLLNE [CDKL4]	2.54 ± 0.98	2.33 ± 0.14
LFGGEFEDSVFEERPERRSGPPAS [C8orf76]	4.75 ± 0.18	4.69 ± 0.2
PNVIEYYENFLEDKALMIAMEYAP [NEK8]	2.32 ± 0.21	2.25 ± 0.21
GVSREEIEREVNILREIRHPNIIT [DAPK3]	2.38 ± 0.42	–
GREYPDAQGFAADVRLMFSNCYKY [BRD3]	2.38 ± 0.21	2.59 ± 0.29
